Key:
[1] = target: human CD112R on CHO-CD112R cells (human) (UniProt Q6DKI7); experiment: FACS binding to CHO-CD112R cells, MFI-APC, fit of the negative control; unit from the axis
[2] = target: human CD112R on CHO-CD112R cells (human) (UniProt Q6DKI7); experiment: FACS binding to CHO-CD112R cells, MFI-APC, ambiguous fit of the negative control; unit from the axis

Sequence of human CD112R on CHO-CD112R cells (human) (Q6DKI7 41-326 limits assumed): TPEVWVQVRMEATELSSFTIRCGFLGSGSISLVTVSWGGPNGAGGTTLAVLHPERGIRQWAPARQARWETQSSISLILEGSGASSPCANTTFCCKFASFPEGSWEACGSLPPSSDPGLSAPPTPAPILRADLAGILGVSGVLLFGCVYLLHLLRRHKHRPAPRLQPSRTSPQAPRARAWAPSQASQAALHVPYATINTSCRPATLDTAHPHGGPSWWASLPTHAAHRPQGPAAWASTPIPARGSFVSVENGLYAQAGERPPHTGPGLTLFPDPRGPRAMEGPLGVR

EC50 [1]: 26.3 µg/mL | EC50 [2]: 4050 µg/mL
Substance: anti-KLH hu-IgG4 antibody

Reference: patent publication US20240309087A1
